4 substances from US20170363643A1 can be followed below.

Assay [1] concerns the target His-tagged recombinant human SMN protein (ProteinTech, catalog # ag14333) (human) (UniProt Q16637). The assay can be described thus: BLI (BLItz), His-tagged SMN immobilised on the biosensor tip, antibody in solution.
The target is the same in assay [2]. As to the kind of experiment: Erenna sandwich assay, capture PT 60154-1-Ig; SMN 10 pg/mL, MPs 5 µg/well, Det Ab 1000 ng/mL, Cap Ab/MP 12.5 µg/mg.
The target is the same in assay [3]. The assay can be described thus: Erenna sandwich assay, capture PT 60154-1-Ig; SMN 10 pg/mL, MPs 5 µg/well, Det Ab 50 ng/mL, Cap Ab/MP 12.5 µg/mg.
The target is the same in assay [4]. As to the kind of experiment: Erenna sandwich assay, capture PT 60154-1-Ig; SMN 10 pg/mL, MPs 10 µg/well, Det Ab 100 ng/mL, Cap Ab/MP 25 µg/mg.
Assay [5] has the same target. As to the kind of experiment: Erenna sandwich assay, capture PT 60154-1-Ig; SMN 10 pg/mL, MPs 10 µg/well, Det Ab 500 ng/mL, Cap Ab/MP 12.5 µg/mg.
Assay [6] shares this target. The assay can be described thus: Erenna sandwich assay, capture PT 60154-1-Ig; SMN 10 pg/mL, MPs 10 µg/well, Det Ab 50 ng/mL, Cap Ab/MP 12.5 µg/mg.
The target is the same in assay [7]. As to the kind of experiment: Erenna sandwich assay, capture PT 60154-1-Ig; SMN 10 pg/mL, MPs 10 µg/well, Det Ab 50 ng/mL, Cap Ab/MP 25 µg/mg.
Assay [8] has the same target. The assay can be described thus: Erenna sandwich assay, capture PT 60154-1-Ig; SMN 10 pg/mL, MPs 5 µg/well, Det Ab 100 ng/mL, Cap Ab/MP 12.5 µg/mg.
Assay [9] shares this target. The assay can be described thus: Erenna sandwich assay, capture PT 60154-1-Ig; SMN 10 pg/mL, MPs 5 µg/well, Det Ab 100 ng/mL, Cap Ab/MP 25 µg/mg.
The target is the same in assay [10]. The assay can be described thus: Erenna sandwich assay, capture PT 60154-1-Ig; SMN 10 pg/mL, MPs 5 µg/well, Det Ab 1000 ng/mL, Cap Ab/MP 25 µg/mg.
The target is the same in assay [11]. As to the kind of experiment: Erenna sandwich assay, capture PT 60154-1-Ig; SMN 10 pg/mL, MPs 10 µg/well, Det Ab 500 ng/mL, Cap Ab/MP 25 µg/mg.
Assay [12] shares this target. The assay can be described thus: Erenna sandwich assay, capture PT 60154-1-Ig; SMN 10 pg/mL, MPs 10 µg/well, Det Ab 1000 ng/mL, Cap Ab/MP 25 µg/mg.
Assay [13] shares this target. The assay can be described thus: Erenna sandwich assay, capture PT 60154-1-Ig; SMN 10 pg/mL, MPs 5 µg/well, Det Ab 500 ng/mL, Cap Ab/MP 25 µg/mg.
The target is the same in assay [14]. As to the kind of experiment: Erenna sandwich assay, capture PT 60154-1-Ig; SMN 10 pg/mL, MPs 10 µg/well, Det Ab 1000 ng/mL, Cap Ab/MP 12.5 µg/mg.
The target is the same in assay [15]. The assay can be described thus: Erenna sandwich assay, capture PT 60154-1-Ig; SMN 10 pg/mL, MPs 5 µg/well, Det Ab 500 ng/mL, Cap Ab/MP 12.5 µg/mg.
Assay [16] shares this target. The assay can be described thus: Erenna sandwich assay, capture PT 60154-1-Ig; SMN 10 pg/mL, MPs 5 µg/well, Det Ab 50 ng/mL, Cap Ab/MP 25 µg/mg.
For assay [17] the target is unchanged. The assay can be described thus: Erenna sandwich assay, capture PT 60154-1-Ig; SMN 10 pg/mL, MPs 10 µg/well, Det Ab 100 ng/mL, Cap Ab/MP 12.5 µg/mg.

pKd: −log10 of the molar value. Some results are limits rather than exact numbers.

Chain of UniProt Q16637 (Q16637 whole entry): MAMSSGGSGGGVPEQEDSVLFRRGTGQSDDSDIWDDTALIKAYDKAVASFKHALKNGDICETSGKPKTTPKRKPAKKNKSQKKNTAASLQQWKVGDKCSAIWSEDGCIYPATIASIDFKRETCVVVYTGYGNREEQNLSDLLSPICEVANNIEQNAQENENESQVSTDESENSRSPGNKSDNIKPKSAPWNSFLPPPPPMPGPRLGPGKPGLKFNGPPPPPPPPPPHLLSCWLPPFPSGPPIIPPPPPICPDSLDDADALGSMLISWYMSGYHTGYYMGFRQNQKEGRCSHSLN

What is called pKd is the negative decadic logarithm of the Kd, by convention in mol/L. In general, koff refers to the rate constant with which the complex falls apart. The kon is a measure of how fast the partners come together. For the substance “Enzo anti-SMN1 (catalog # ADI-NBA-202-200) (antibody)”, in assay [1], the pKd was > 10.00, the koff is < 1e-07 s⁻¹ and the kon amounted to 12300 M⁻¹ s⁻¹.

Turning to “BD Biosciences anti-SMN (catalog #610647) (antibody)”, the kon in assay [1] was 637000 M⁻¹ s⁻¹.

With “Millipore anti-SMN2 (catalog # MABE230) (antibody)”, the detected events (DE) (detected events) in assay [2] was found to be 3570; in assay [3], 231; in [4] it was 505; in assay [5], 2180; in assay [6], 302; in assay [7], 269. Also, the detected events (DE) (detected events) in assay [8] came to 501; in [9] it was 481; in assay [10] it was 3440; in assay [11], 2140; in [12] it was 3370; in assay [13], 2040. Further, the detected events (DE) (detected events) in assay [14] worked out at 3720; in assay [15] it was 1960; in [16] it was 256; in assay [17], 523. Moreover, the pKd in assay [1] is > 12.00. Moreover, the koff in assay [1] was < 1e-07 s⁻¹. Moreover, the kon in assay [1] stood at 105000 M⁻¹ s⁻¹.

On to “ProteinTech anti-SMN2 (catalog #60154-2-Ig) (antibody)”, for which, in assay [1], the pKd is > 9.00, the koff is < 1e-07 s⁻¹ and the kon is 884 M⁻¹ s⁻¹.
